This passage reports Kd results from patent US20220204649A1 (SYSMEX, published 2022).

To fix the notation:
B1: light chain 63, 65, 67/heavy chain 82B, 83, 84 variant of the anti-HER2 antibody (Fab, V domains shown)
VH: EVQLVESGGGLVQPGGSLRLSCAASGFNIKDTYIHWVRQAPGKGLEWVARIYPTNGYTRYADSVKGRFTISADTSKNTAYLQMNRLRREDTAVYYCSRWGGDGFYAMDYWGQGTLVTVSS
VL: DIQMTQSPSSLSASVGDRVTITCRASQDVNTAVAWYQQKPGKAPKLLIYSASFLYSGVPSRFRGRRRGTDFTLTISSLQPEDFATYYCQQHYTTPPTFGQGTKVEIKR
B2: light chain 63, 65, 67/heavy chain 72, 77, 79 variant of the anti-HER2 antibody (Fab, V domains shown)
VH: EVQLVESGGGLVQPGGSLRLSCAASGFNIKDTYIHWVRQAPGKGLEWVARIYPTNGYTRYADSVKGRFTISARTSKNRARLQMNSLRAEDTAVYYCSRWGGDGFYAMDYWGQGTLVTVSS
VL: DIQMTQSPSSLSASVGDRVTITCRASQDVNTAVAWYQQKPGKAPKLLIYSASFLYSGVPSRFRGRRRGTDFTLTISSLQPEDFATYYCQQHYTTPPTFGQGTKVEIKR
B3: 72, 77, 79 variant of humanized anti-HER2 antibody (Fab) (Fab, V domains shown)
VH: EVQLVESGGGLVQPGGSLRLSCAASGFNIKDTYIHWVRQAPGKGLEWVARIYPTNGYTRYADSVKGRFTISARTSKNRARLQMNSLRAEDTAVYYCSRWGGDGFYAMDYWGQGTLVTVSS
VL: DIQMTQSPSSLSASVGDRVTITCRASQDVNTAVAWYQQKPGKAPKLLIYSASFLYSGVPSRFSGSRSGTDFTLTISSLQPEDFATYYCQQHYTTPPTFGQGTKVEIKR
notes: also called Heavy chain 72, 77, 79 variant
B4: 68, 70, 72 variant of humanized anti-HER2 antibody (Fab) (Fab, V domains shown)
VH: EVQLVESGGGLVQPGGSLRLSCAASGFNIKDTYIHWVRQAPGKGLEWVARIYPTNGYTRYADSVKGRFRIRARTSKNTAYLQMNSLRAEDTAVYYCSRWGGDGFYAMDYWGQGTLVTVSS
VL: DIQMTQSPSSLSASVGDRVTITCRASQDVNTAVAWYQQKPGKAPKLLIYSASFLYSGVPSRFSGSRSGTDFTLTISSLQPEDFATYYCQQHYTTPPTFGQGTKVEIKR
B5: 84, 85, 87 variant of humanized anti-HER2 antibody (Fab) (Fab, V domains shown)
VH: EVQLVESGGGLVQPGGSLRLSCAASGFNIKDTYIHWVRQAPGKGLEWVARIYPTNGYTRYADSVKGRFTISADTSKNTAYLQMNSLRRRDRAVYYCSRWGGDGFYAMDYWGQGTLVTVSS
VL: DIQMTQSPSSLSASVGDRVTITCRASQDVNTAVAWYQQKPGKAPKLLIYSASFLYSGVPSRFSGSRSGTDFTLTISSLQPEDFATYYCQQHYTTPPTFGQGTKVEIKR
B6: 74, 75, 77 variant of humanized anti-HER2 antibody (Fab) (Fab, V domains shown)
VH: EVQLVESGGGLVQPGGSLRLSCAASGFNIKDTYIHWVRQAPGKGLEWVARIYPTNGYTRYADSVKGRFTISADTRRNRAYLQMNSLRAEDTAVYYCSRWGGDGFYAMDYWGQGTLVTVSS
VL: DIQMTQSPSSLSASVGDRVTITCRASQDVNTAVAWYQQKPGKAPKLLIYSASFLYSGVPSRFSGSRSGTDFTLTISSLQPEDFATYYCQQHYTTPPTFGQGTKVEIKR
B7: 79, 81, 82A variant of humanized anti-HER2 antibody (Fab) (Fab, V domains shown)
VH: EVQLVESGGGLVQPGGSLRLSCAASGFNIKDTYIHWVRQAPGKGLEWVARIYPTNGYTRYADSVKGRFTISADTSKNTARLRMRSLRAEDTAVYYCSRWGGDGFYAMDYWGQGTLVTVSS
VL: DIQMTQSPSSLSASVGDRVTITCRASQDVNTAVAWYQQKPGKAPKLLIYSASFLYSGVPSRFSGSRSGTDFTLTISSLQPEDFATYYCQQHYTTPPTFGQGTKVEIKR

One assay concerns the target T1, HER2 (UniProt P04626 23-652, limits assumed).
T1 construct: also called antigen of the anti-HER2 antibody
The assay can be described thus: SPR (Biacore 8K), Example 3, as in Example 1. On the procedure:
(§1) Affinity of the prepared variants was measured using Biacore (registered trademark) 8K (GE Healthcare) in the same manner as in Example 1.
A general note: In SPR one partner is held on a chip, and binding of the other changes the refractive index at the surface.
B1: the Kd (usually the concentration at which binding is half-saturated) is 0.0357 nM.

On to B2, for which the affinity, expressed as Kd, was 0.0126 nM.

For B3, the Kd worked out at 0.0321 nM.

The target in the next assay is T1, HER2. Description: SPR (Biacore 8K), as in Example 1. As to the method: as §1
In turn, B4 showed a Kd of 0.0208 nM.

B5 had a Kd of 0.0211 nM.

Take B6: the Kd stood at 0.0443 nM.

B3 had a Kd of 0.00505 nM.

Turning to B7, the affinity, expressed as Kd, was 0.0338 nM. This Kd is about 6.7-fold higher than that of the molecule before.
